The record followed here is paper PMC12102759 (2025).

The labels stand for the following.
B1: RNF115 peptide 69-84 (E3 ubiquitin-protein ligase RNF115), 16-mer library wild type / MDM2 SWIB (MDM2 SWIB/MDM2 domain, residues 17-125) (parent complex)
chain 1: THFAELWGHLDHTMFF
chain 2: SQIPASEQETLVRPKPLLLKLLKSVGAQKDTYTMKEVLFYLGQYIMTKRLYDEKQQHIVYCSNDLLGDLFGVPSFSVKEHRKIYTMIYRNLVVVNQQESSDSGTSVSEN

This test covers variants of B1. The test is described as follows: proteomic peptide phage display deep mutational scan (ProP-PD DMS): M13 P8 16-mer library selected against immobilised GST-tagged bait for four days (rounds), NGS of the eluted pools per day and pseudo-replica; bait immobilised on MaxiSorp plates (10 µg), library pre-cleared on GST, 2 h binding at 4 °C, five washes; one round per day, days 1-4; value from days 2 and 3.
For chain 1 F15I, the screen value is 0.00139 average fractional NGS count over selection days 2 and 3 (reads of this peptide / all reads for the bait, averaged over ….
Next, chain 1 F15V: 0.0496 average fractional NGS count over selection days 2 and 3 (reads of this peptide / all reads for the bait, averaged over ….
With chain 1 F15N the figure was 0.000153 average fractional NGS count over selection days 2 and 3 (reads of this peptide / all reads for the bait, averaged over …; with chain 1 F15Q, 0.0113 average fractional NGS count over selection days 2 and 3 (reads of this peptide / all reads for the bait, averaged over ….
chain 1 F15Y: the screen value is 0.00151 average fractional NGS count over selection days 2 and 3 (reads of this peptide / all reads for the bait, averaged over ….
With chain 1 F15L the figure was 0.0296 average fractional NGS count over selection days 2 and 3 (reads of this peptide / all reads for the bait, averaged over …; with chain 1 F15D, 0.00754 average fractional NGS count over selection days 2 and 3 (reads of this peptide / all reads for the bait, averaged over ….
Next, chain 1 F15P: 0.00458 average fractional NGS count over selection days 2 and 3 (reads of this peptide / all reads for the bait, averaged over ….
As for chain 1 F15G, the screen value is 0.00105 average fractional NGS count over selection days 2 and 3 (reads of this peptide / all reads for the bait, averaged over ….
Next, chain 1 F15W: 0.00256 average fractional NGS count over selection days 2 and 3 (reads of this peptide / all reads for the bait, averaged over …; chain 1 F15T: 0.00702 average fractional NGS count over selection days 2 and 3 (reads of this peptide / all reads for the bait, averaged over …; chain 1 F15A: 0.0214 average fractional NGS count over selection days 2 and 3 (reads of this peptide / all reads for the bait, averaged over ….
Next, chain 1 H2K: 0.000959 average fractional NGS count over selection days 2 and 3 (reads of this peptide / all reads for the bait, averaged over …; chain 1 H2R: 0.000186 average fractional NGS count over selection days 2 and 3 (reads of this peptide / all reads for the bait, averaged over ….
With chain 1 H2P the figure was 0.00101 average fractional NGS count over selection days 2 and 3 (reads of this peptide / all reads for the bait, averaged over ….
Take chain 1 H2Y: the screen value is 0.000608 average fractional NGS count over selection days 2 and 3 (reads of this peptide / all reads for the bait, averaged over ….
Next, chain 1 H2T: 0.00209 average fractional NGS count over selection days 2 and 3 (reads of this peptide / all reads for the bait, averaged over ….
Next, chain 1 H2V: 0.00468 average fractional NGS count over selection days 2 and 3 (reads of this peptide / all reads for the bait, averaged over …; chain 1 H2A: 0.000678 average fractional NGS count over selection days 2 and 3 (reads of this peptide / all reads for the bait, averaged over …; chain 1 H2N: 0.000593 average fractional NGS count over selection days 2 and 3 (reads of this peptide / all reads for the bait, averaged over ….
Turning to chain 1 H2L, the screen value is 0.00441 average fractional NGS count over selection days 2 and 3 (reads of this peptide / all reads for the bait, averaged over ….
Next, chain 1 H2D: 0.00139 average fractional NGS count over selection days 2 and 3 (reads of this peptide / all reads for the bait, averaged over …; chain 1 H2S: 0.0241 average fractional NGS count over selection days 2 and 3 (reads of this peptide / all reads for the bait, averaged over …; chain 1 H2W: 0.000523 average fractional NGS count over selection days 2 and 3 (reads of this peptide / all reads for the bait, averaged over ….
Next, chain 1 H12T: 0.00036 average fractional NGS count over selection days 2 and 3 (reads of this peptide / all reads for the bait, averaged over …; chain 1 H12Q: 0.000843 average fractional NGS count over selection days 2 and 3 (reads of this peptide / all reads for the bait, averaged over ….
Next, chain 1 H12G: 0.0011 average fractional NGS count over selection days 2 and 3 (reads of this peptide / all reads for the bait, averaged over …; chain 1 H12A: 0.00464 average fractional NGS count over selection days 2 and 3 (reads of this peptide / all reads for the bait, averaged over ….
On to chain 1 H12M, for which the screen value was 0.00543 average fractional NGS count over selection days 2 and 3 (reads of this peptide / all reads for the bait, averaged over ….
Next, chain 1 H12K: 0.00015 average fractional NGS count over selection days 2 and 3 (reads of this peptide / all reads for the bait, averaged over …; chain 1 H12D: 0.00032 average fractional NGS count over selection days 2 and 3 (reads of this peptide / all reads for the bait, averaged over …; chain 1 H12P: 0.000332 average fractional NGS count over selection days 2 and 3 (reads of this peptide / all reads for the bait, averaged over ….
Consider chain 1 H12I, for which the screen value is 0.000167 average fractional NGS count over selection days 2 and 3 (reads of this peptide / all reads for the bait, averaged over ….
For chain 1 T1S, the screen value is 0.00105 average fractional NGS count over selection days 2 and 3 (reads of this peptide / all reads for the bait, averaged over ….
Next, chain 1 T1L: 0.000174 average fractional NGS count over selection days 2 and 3 (reads of this peptide / all reads for the bait, averaged over …; chain 1 T1Q: 0.00081 average fractional NGS count over selection days 2 and 3 (reads of this peptide / all reads for the bait, averaged over ….
In the case of chain 1 T1N, the screen value is 0.000471 average fractional NGS count over selection days 2 and 3 (reads of this peptide / all reads for the bait, averaged over ….
With chain 1 T1P the figure was 0.00338 average fractional NGS count over selection days 2 and 3 (reads of this peptide / all reads for the bait, averaged over ….
On to chain 1 T1I, for which the screen value is 0.000116 average fractional NGS count over selection days 2 and 3 (reads of this peptide / all reads for the bait, averaged over ….
Next, chain 1 T1M: 0.0023 average fractional NGS count over selection days 2 and 3 (reads of this peptide / all reads for the bait, averaged over ….
With chain 1 T1V the figure was 0.00156 average fractional NGS count over selection days 2 and 3 (reads of this peptide / all reads for the bait, averaged over ….
As to chain 1 T1D, the screen value was 0.000599 average fractional NGS count over selection days 2 and 3 (reads of this peptide / all reads for the bait, averaged over ….
With chain 1 T1A the figure was 0.00514 average fractional NGS count over selection days 2 and 3 (reads of this peptide / all reads for the bait, averaged over ….
As to chain 1 T1G, the screen value was 0.000168 average fractional NGS count over selection days 2 and 3 (reads of this peptide / all reads for the bait, averaged over ….
chain 1 T1Y: the screen value was 0.000395 average fractional NGS count over selection days 2 and 3 (reads of this peptide / all reads for the bait, averaged over ….
On to chain 1 T13I, for which the screen value is 0.00105 average fractional NGS count over selection days 2 and 3 (reads of this peptide / all reads for the bait, averaged over ….
Next, chain 1 T13V: 0.0019 average fractional NGS count over selection days 2 and 3 (reads of this peptide / all reads for the bait, averaged over …; chain 1 T13A: 0.00106 average fractional NGS count over selection days 2 and 3 (reads of this peptide / all reads for the bait, averaged over …; chain 1 T13S: 0.0255 average fractional NGS count over selection days 2 and 3 (reads of this peptide / all reads for the bait, averaged over ….
chain 1 T13L: the screen value was 0.00319 average fractional NGS count over selection days 2 and 3 (reads of this peptide / all reads for the bait, averaged over ….
With chain 1 T13H the figure was 0.00485 average fractional NGS count over selection days 2 and 3 (reads of this peptide / all reads for the bait, averaged over ….
Take chain 1 T13Y: the screen value was 0.00269 average fractional NGS count over selection days 2 and 3 (reads of this peptide / all reads for the bait, averaged over ….
Take chain 1 T13R: the screen value is 0.00097 average fractional NGS count over selection days 2 and 3 (reads of this peptide / all reads for the bait, averaged over ….
With chain 1 T13N the figure was 0.00271 average fractional NGS count over selection days 2 and 3 (reads of this peptide / all reads for the bait, averaged over ….
Regarding chain 1 T13K, the screen value is 0.000352 average fractional NGS count over selection days 2 and 3 (reads of this peptide / all reads for the bait, averaged over ….
For chain 1 T13D, the screen value is 0.00412 average fractional NGS count over selection days 2 and 3 (reads of this peptide / all reads for the bait, averaged over ….
Regarding chain 1 T13M, the screen value is 0.000376 average fractional NGS count over selection days 2 and 3 (reads of this peptide / all reads for the bait, averaged over ….
Next, chain 1 F3Q: 0.000412 average fractional NGS count over selection days 2 and 3 (reads of this peptide / all reads for the bait, averaged over ….
With chain 1 F3T the figure was 9.19e-05 average fractional NGS count over selection days 2 and 3 (reads of this peptide / all reads for the bait, averaged over ….
With chain 1 A4Y the figure was 0.000442 average fractional NGS count over selection days 2 and 3 (reads of this peptide / all reads for the bait, averaged over ….
On to chain 1 A4D, for which the screen value was 0.000369 average fractional NGS count over selection days 2 and 3 (reads of this peptide / all reads for the bait, averaged over ….
As for chain 1 A4M, the screen value is 0.000942 average fractional NGS count over selection days 2 and 3 (reads of this peptide / all reads for the bait, averaged over ….
Next, chain 1 A4I: 0.000788 average fractional NGS count over selection days 2 and 3 (reads of this peptide / all reads for the bait, averaged over …; chain 1 A4V: 0.000584 average fractional NGS count over selection days 2 and 3 (reads of this peptide / all reads for the bait, averaged over …; chain 1 A4Q: 0.000494 average fractional NGS count over selection days 2 and 3 (reads of this peptide / all reads for the bait, averaged over ….
On to chain 1 A4S, for which the screen value is 0.00536 average fractional NGS count over selection days 2 and 3 (reads of this peptide / all reads for the bait, averaged over ….
With chain 1 A4H the figure was 0.00203 average fractional NGS count over selection days 2 and 3 (reads of this peptide / all reads for the bait, averaged over …; with chain 1 A4N, 0.000396 average fractional NGS count over selection days 2 and 3 (reads of this peptide / all reads for the bait, averaged over …; with chain 1 A4T, 0.000121 average fractional NGS count over selection days 2 and 3 (reads of this peptide / all reads for the bait, averaged over ….
With chain 1 A4L the figure was 0.000327 average fractional NGS count over selection days 2 and 3 (reads of this peptide / all reads for the bait, averaged over ….
Consider chain 1 A4G, for which the screen value is 0.000193 average fractional NGS count over selection days 2 and 3 (reads of this peptide / all reads for the bait, averaged over ….
Next, chain 1 A4W: 0.000398 average fractional NGS count over selection days 2 and 3 (reads of this peptide / all reads for the bait, averaged over …; chain 1 A4E: 0.000667 average fractional NGS count over selection days 2 and 3 (reads of this peptide / all reads for the bait, averaged over ….
In the case of chain 1 A4F, the screen value is 0.000182 average fractional NGS count over selection days 2 and 3 (reads of this peptide / all reads for the bait, averaged over ….
Turning to chain 1 E5T, the screen value was 0.000518 average fractional NGS count over selection days 2 and 3 (reads of this peptide / all reads for the bait, averaged over ….
